Source: patent US20250034594A1, “RNA-GUIDED GENOME RECOMBINEERING AT KILOBASE SCALE” (THE BOARD OF TRUSTEES OF THE LELAND STANFORD JUNIOR …, priority 2021, published 2025)

Tests used:
Type in all cases: cell-based
gene editing with dCas9 = assay: Screen of 322 new SSAP proteins, gene editing activity with dCas9 (Table 5); set-up: dCas9 with SSAP activity: scale not given here
In short: (§1)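 Editing screen of 322 newly identified, synthesized SSAPs, each co-used with Cas9 and with dCas9.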

[1] = test system: gene editing with Cas9 and dCas9; assay: Screen of 322 new SSAP proteins, activity across all experiments (Cas9 and dCas9, Table 5); set-up: scale not given here
In short: as §1

gene editing with Cas9 = assay: Screen of 322 new SSAP proteins, gene editing activity with Cas9 (Table 5); set-up: Cas9 with SSAP activity: scale not given here
In short: as §1

B1: SSAP_65: SEQ ID NO: 234 (protein)
chain: TQDLATAIADQQPAQRRTAFDLVESMRGELHKALPEHASIDNFLRLALTELKMNPQLGNCSGESLLGALMTAARVGLEVGGPLGQFYLTPRRLKRDGWAVVPIVGYRGLITLARRAGVGQVNAVVVHEGDTFREGASSERGFFFDWEPAVERGKPVGALAAARLAGGDVQHRYLSLAEVHERRDRGGFKDGSNSPWATDYDAMVRKTALRALVPLLPQSTALSFAVQADEQVQRYDAGDIDIPALDETDTEDTK
dCas9 with SSAP activity (gene editing with dCas9): −4.569
dCas9 with SSAP activity (normalized) (gene editing with dCas9): −0.746
Activity across all experiments [1]: −2.185
Cas9 with SSAP activity (gene editing with Cas9): 0.198
Cas9 with SSAP activity (normalized) (gene editing with Cas9): 0.190

B2: SSAP_106: SEQ ID NO: 275; Tepidibacillus fermentans (protein)
chain: ATNEKVKTQLANRANGQAPTPTPEQTIAAYMKKMAPRFAEVLPKHMDIDRMTRIALTTIRTNPKLLEASVPSLLGAIMQAAQLGLEPGLVGHCYLVPFKNGKTGQTEVQFIIGYKGMIDLARRSGNIESIYAHAVYENDTFEYEYGLHPKLVHKPAMTDRGEFIGAYAVAHFKDGGYQFEFMPKEEIEKRRNRSKTANGGPWVTDYEEMAKKTVVRHMWKYLPISIEIQQAAAQDEVIRKDVTSEPEFVDDVIDISTEIEEQSVEVEGEEAQ
modifications: Tepidibacillus fermentans
dCas9 with SSAP activity (gene editing with dCas9): −4.572
dCas9 with SSAP activity (normalized) (gene editing with dCas9): −0.829
Activity across all experiments [1]: −5.073
Cas9 with SSAP activity (gene editing with Cas9): −5.574
Cas9 with SSAP activity (normalized) (gene editing with Cas9): −1.211

B3: SSAP_97: SEQ ID NO: 266; Gilliamella apicola (protein, listed as Gilliamella apicola)
chain: SEQNQPPIAKSDLEKTQLTNQDKKPATLAELVNSPKIKNQLAMALPKHMNPDRMARIVTTEIRKTPALADSNIQSFLGAVVQCSQLGLEPGGALGHAYLLPFGNGKAKDGKSNVQLIIGYRGMIDLARRSGQIISISARTVREGDDFHYEYGLNEDLKHTPKADESAPITYVYAVARLKDGGSQFEVMTFNQIESVRKQSKAGDKGPWITHWEEMAKKTVIRRLFKYLPVSIEIQQAVILDEKAEAGISQDNEMILDADFSVVEA
dCas9 with SSAP activity (gene editing with dCas9): −4.633
dCas9 with SSAP activity (normalized) (gene editing with dCas9): −0.842
Activity across all experiments [1]: −5.290
Cas9 with SSAP activity (gene editing with Cas9): −5.948
Cas9 with SSAP activity (normalized) (gene editing with Cas9): −1.267

B4: SSAP_130: SEQ ID NO: 299; Peptoanaerobacter stomatis (protein, listed as Peptoanaerobacter stomatis)
chain: GAKELIQKKQENKQISPTSNMNMLLQSMAGAIKKALPAQINSERFQRVALTAFSSNQKLQQCDPISFLAAMMQSAQLGLEPNTPLGQAYLIPYGKQVQFQVGYKGLLELAQRSGQFKSIYSHEVRENDEFEMEYGLNQKLVHKPNLKQERGEVIGYYACYHLTNGGESMFFMTKDEIINFGKSKSKTFNNGPWQTDFDAMAKKTVLKQLLKYAPLSIESQKFMSMDETVKSDISANMDEINNDTVDFEVDIQTGEVINDIVVENTNEDEAN
dCas9 with SSAP activity (gene editing with dCas9): −4.650
dCas9 with SSAP activity (normalized) (gene editing with dCas9): −0.774
Activity across all experiments [1]: −2.714
Cas9 with SSAP activity (gene editing with Cas9): −0.778
Cas9 with SSAP activity (normalized) (gene editing with Cas9): −0.800

B5: SSAP_82: SEQ ID NO: 251 (protein)
chain: ENEVMTQDQAYEVASPFGSSENFQKLFDIGKMFASSSLVPDRYRGKPMDCTIAVDMANRMGVSPMMVMQQLYVVKGNPQWSGQACMSLIRGSSEYKNVRPVYTGKKGEDSWGCYIEAEKKKTGEIVKGTEVTIAMAKAEGWYSKKDKYGNETSKWQTMPELMLAYRAAAFFARVYIPNALMGCAVEGEAEDIMKRAITAEDPFKEDAK
dCas9 with SSAP activity (gene editing with dCas9): −4.498
dCas9 with SSAP activity (normalized) (gene editing with dCas9): −0.873
Activity across all experiments [1]: −4.391
Cas9 with SSAP activity (gene editing with Cas9): −4.284
Cas9 with SSAP activity (normalized) (gene editing with Cas9): −0.776

B6: SSAP_266: SEQ ID NO: 435; Bacteroides stercoris (protein, listed as Bacteroides stercoris)
chain: STITTIPQLKSMLANDNVKARFKEILGKKAPGFISSIVAVANSNTLLQKAEPQSIMNAAVVAATLDLPINPNLGFAYVVPYGNQAQFQMGWRGFVQLAMRSGQYKTINVNEIYEGEIKKSNRFTGEYEFGERASDKIVGYMAYFSLINGFEKFLYMSKEDCEKHGRKFSQTYKRGTGIWSTDFDSMAKKTVLKMLLSKFGILSIEMQRAQTFDQAIIKDNLAETDIDEAEVSYNDNPDNEEARRNAMKEALQEAEVVDENTGELFNTETK
dCas9 with SSAP activity (gene editing with dCas9): −4.677
dCas9 with SSAP activity (normalized) (gene editing with dCas9): −0.799
Activity across all experiments [1]: −5.345
Cas9 with SSAP activity (gene editing with Cas9): −6.013
Cas9 with SSAP activity (normalized) (gene editing with Cas9): −1.700

B7: SSAP_275: SEQ ID NO: 444; Paenibacillus pinihumi (protein, listed as Paenibacillus pinihumi)
chain: ADANKLLVINEKLIKLIESKQDAMPKSFNKTRFIQNCMAVLQDTDEIDKCDATSVARTLLKGAFLGLDFMNKECYPIIYGGKCTFQTDYKGEIKLAQKYSVRPVLNIYAELVREGDFFLKEVKDGQRTIQHKPPEGFNDGKVIGAFAIVLYKDGGMDCESMSVAEIETTRKNYSKQANGPSWTKSPGEMQKKTVLRRLCKTIQLDFDTIEAKEAFEDGGDFDFKQDPKPQQQSPFDKNATVVDAEYEEVEEEDQSESAT
dCas9 with SSAP activity (gene editing with dCas9): −4.593
dCas9 with SSAP activity (normalized) (gene editing with dCas9): −0.870
Activity across all experiments [1]: −2.900
Cas9 with SSAP activity (gene editing with Cas9): −1.206
Cas9 with SSAP activity (normalized) (gene editing with Cas9): −0.494

B8: SSAP_103: SEQ ID NO: 272; Zymobacter palmae (protein, listed as Zymobacter palmae)
chain: TNTVQQQAPQQDQLAQQLQQASGNTPQKKPMPSTIQGMLKDDRFKTQIARALPKHVTPERIMRIALTEINKTPKLKECDPIGLFGSIVQSAQLGLELGGALGHAYLVPYGKQAQFIIGYRGMIDLARRSGQMVSLQAHTVHENDEFNFEYGLNENLRHVPARGERGPMIAVYAVAKLVGGGHQIEVMWKEDVDAVRKSSKAGGSGPWRDHYEEMAKKTAIRRLFKYLPVSVEMQRAVSLDEQAEEGVQDNNVFDGDYTVAEH
dCas9 with SSAP activity (gene editing with dCas9): −4.540
dCas9 with SSAP activity (normalized) (gene editing with dCas9): −0.705
Activity across all experiments [1]: −2.611
Cas9 with SSAP activity (gene editing with Cas9): −0.682
Cas9 with SSAP activity (normalized) (gene editing with Cas9): −0.190

B9: SSAP_72: SEQ ID NO: 241 (protein)
chain: ATNSSLKNQLSKKENVTIGNTMQGLLNNPKMKKRFEEILDKKAPQYMSSILNLYNGDTSLQKCEPMSVLSSSMIAATMDLPVDKNLGYAWIVPYKNKAQFQMGYKGYIQLALRTGQYKHINAIEIHEGELVNWNPLTEELEIDFTKKESDKIIGYAGYFELLNGFKKSTYWTKTQIENHRKKFSKSDYGWNKDFDAMAIKTVIRNMLSKWGILSIEMQNAYTADENIIKDSFIDDSENVSANIEDLVEADYTVNQDSLESKEEFEGTPLE
dCas9 with SSAP activity (gene editing with dCas9): 0.705
dCas9 with SSAP activity (normalized) (gene editing with dCas9): 1.131
Activity across all experiments [1]: 0.551
Cas9 with SSAP activity (gene editing with Cas9): 0.397
Cas9 with SSAP activity (normalized) (gene editing with Cas9): 0.895
